# Reference: article PMC9482650, “Quantitative fragmentomics allow affinity mapping of interactomes” (Nature Communications, 2022)
# T1: MPDZ_12, O75970
# T1 sequence (O75970 1857-1958, limits assumed, looked up): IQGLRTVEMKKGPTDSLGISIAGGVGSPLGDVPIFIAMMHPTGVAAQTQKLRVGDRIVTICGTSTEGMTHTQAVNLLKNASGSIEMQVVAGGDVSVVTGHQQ
# T2: PTPN13_1, Q12923
# T2 sequence (Q12923 1088-1188, limits assumed, looked up): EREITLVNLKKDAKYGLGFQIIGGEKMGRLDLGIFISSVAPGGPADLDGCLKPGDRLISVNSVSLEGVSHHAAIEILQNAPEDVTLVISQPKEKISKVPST
# T3: LNX2_2, Q8N448
# T3 sequence (Q8N448 334-432, limits assumed, looked up): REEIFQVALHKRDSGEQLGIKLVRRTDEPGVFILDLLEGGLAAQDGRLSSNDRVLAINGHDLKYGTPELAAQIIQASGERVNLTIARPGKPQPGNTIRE
# T4: NHERF3_4, Q5T2W1
# T4 sequence (Q5T2W1 373-468, limits assumed, looked up): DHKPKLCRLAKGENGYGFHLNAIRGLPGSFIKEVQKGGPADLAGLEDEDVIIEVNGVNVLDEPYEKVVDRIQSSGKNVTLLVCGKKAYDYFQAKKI
# T5: RAPGEF6, Q8TEU7
# T5 sequence (Q8TEU7 525-625, limits assumed, looked up): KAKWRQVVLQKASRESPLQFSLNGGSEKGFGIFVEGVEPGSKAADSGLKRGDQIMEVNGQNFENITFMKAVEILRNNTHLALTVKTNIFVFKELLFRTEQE
# T6: APBA2_2, Q99767
# T6 sequence (Q99767 654-744, limits assumed, looked up): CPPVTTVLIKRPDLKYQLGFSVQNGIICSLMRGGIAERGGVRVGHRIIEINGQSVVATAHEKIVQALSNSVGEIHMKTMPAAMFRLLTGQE
# T7: SHANK1, Q9Y566
# T7 sequence (Q9Y566 658-767, limits assumed, looked up): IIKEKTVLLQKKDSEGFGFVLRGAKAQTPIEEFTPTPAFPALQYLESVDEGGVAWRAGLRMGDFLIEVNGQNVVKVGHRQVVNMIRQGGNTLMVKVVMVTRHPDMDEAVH
# T8: HTRA4, P83105
# T8 sequence (P83105 378-476, limits assumed, looked up): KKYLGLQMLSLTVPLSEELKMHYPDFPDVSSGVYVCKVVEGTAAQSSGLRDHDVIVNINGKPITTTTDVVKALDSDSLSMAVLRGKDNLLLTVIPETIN
# T9: PDZD7_3, Q9H5P4
# T9 sequence (Q9H5P4 857-944, limits assumed, looked up): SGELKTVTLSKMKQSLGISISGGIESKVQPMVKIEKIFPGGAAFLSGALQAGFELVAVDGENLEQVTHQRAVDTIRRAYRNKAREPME
# T10: APBA3_1, O96018
# T10 sequence (O96018 389-490, limits assumed, looked up): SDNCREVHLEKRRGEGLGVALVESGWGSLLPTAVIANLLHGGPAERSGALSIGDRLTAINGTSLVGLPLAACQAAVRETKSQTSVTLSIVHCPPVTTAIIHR
# T11: GRIP1_5, Q9Y3R0
# T11 sequence (Q9Y3R0 568-668, limits assumed, looked up): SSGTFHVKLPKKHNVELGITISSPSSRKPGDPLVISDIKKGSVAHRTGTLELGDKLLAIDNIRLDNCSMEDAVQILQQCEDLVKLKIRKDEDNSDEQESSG
# What was measured:
# Assay in all cases: holdup assay
# Parameters in all cases: key: below the threshold = too weak to quantify, mostly under pKd 3.1 to 4
# Conditions in all cases: plain residues with an end cap or a label only (N-terminal biotin on a linker: ado-ado)
# MPDZ_12, O75970 = biological target: T1, MPDZ_12, O75970
# PTPN13_1, Q12923 = biological target: T2, PTPN13_1, Q12923
# LIMK2, P53671 = biological target: LIMK2, P53671
# DLG4_2, P78352 = biological target: DLG4_2, P78352
# FRMPD4, Q14CM0 = biological target: FRMPD4, Q14CM0
# LNX2_2, Q8N448 = biological target: T3, LNX2_2, Q8N448
# PDZRN4_1, Q6ZMN7 = biological target: PDZRN4_1, Q6ZMN7
# NHERF3_4, Q5T2W1 = biological target: T4, NHERF3_4, Q5T2W1
# LNX1_2, Q8TBB1 = biological target: LNX1_2, Q8TBB1
# RAPGEF6, Q8TEU7 = biological target: T5, RAPGEF6, Q8TEU7
# Inadl_1, Q8NI35 = biological target: Inadl_1, Q8NI35
# APBA2_2, Q99767 = biological target: T6, APBA2_2, Q99767
# Inadl_3, Q8NI35 = biological target: Inadl_3, Q8NI35
# DLG1_1, Q12959 = biological target: DLG1_1, Q12959
# Inadl_9, Q8NI35 = biological target: Inadl_9, Q8NI35
# DLG4_3, P78352 = biological target: DLG4_3, P78352
# SHANK1, Q9Y566 = biological target: T7, SHANK1, Q9Y566
# MAGI2_5, Q86UL8 = biological target: MAGI2_5, Q86UL8
# HTRA4, P83105 = biological target: T8, HTRA4, P83105
# DLG2_2, Q15700 = biological target: DLG2_2, Q15700
# AHNAK1, Q09666 = biological target: AHNAK1, Q09666
# PDZD7_3, Q9H5P4 = biological target: T9, PDZD7_3, Q9H5P4
# APBA3_1, O96018 = biological target: T10, APBA3_1, O96018
# LNX1_1, Q8TBB1 = biological target: LNX1_1, Q8TBB1
# GRIP1_5, Q9Y3R0 = biological target: T11, GRIP1_5, Q9Y3R0
# PTPN3, P26045 = biological target: PTPN3, P26045
# MAGI2_6, Q86UL8 = biological target: MAGI2_6, Q86UL8
# Sequence of MAGI2_6, Q86UL8 (Q86UL8 1141-1229): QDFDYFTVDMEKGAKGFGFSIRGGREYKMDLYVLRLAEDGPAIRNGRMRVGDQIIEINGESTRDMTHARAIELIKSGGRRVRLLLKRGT
# Sequence of PTPN3, P26045 (P26045 505-587): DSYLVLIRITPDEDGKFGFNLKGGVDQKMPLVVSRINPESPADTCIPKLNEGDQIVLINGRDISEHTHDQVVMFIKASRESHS
# Sequence of DLG2_2, Q15700 (Q15700 189-283): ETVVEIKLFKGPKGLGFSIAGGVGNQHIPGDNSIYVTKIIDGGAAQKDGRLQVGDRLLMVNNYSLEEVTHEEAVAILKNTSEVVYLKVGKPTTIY
# Sequence of PDZRN4_1, Q6ZMN7 (Q6ZMN7 213-318): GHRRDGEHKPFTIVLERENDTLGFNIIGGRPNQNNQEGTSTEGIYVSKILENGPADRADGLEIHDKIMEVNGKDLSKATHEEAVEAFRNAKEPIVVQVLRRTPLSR
# Sequence of AHNAK1, Q09666 (Q09666 4-100): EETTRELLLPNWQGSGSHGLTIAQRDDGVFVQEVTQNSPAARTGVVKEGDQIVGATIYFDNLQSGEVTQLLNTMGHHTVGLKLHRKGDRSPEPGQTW
# Sequence of DLG4_2, P78352 (P78352 155-259): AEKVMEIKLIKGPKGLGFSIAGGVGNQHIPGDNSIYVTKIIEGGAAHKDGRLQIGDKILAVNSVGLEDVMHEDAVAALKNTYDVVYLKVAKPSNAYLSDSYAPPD
# Sequence of LIMK2, P53671 (P53671 143-248): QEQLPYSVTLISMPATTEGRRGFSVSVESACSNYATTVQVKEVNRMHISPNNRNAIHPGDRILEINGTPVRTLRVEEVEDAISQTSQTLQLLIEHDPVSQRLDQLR
# Sequence of Inadl_1, Q8NI35 (Q8NI35 113-229): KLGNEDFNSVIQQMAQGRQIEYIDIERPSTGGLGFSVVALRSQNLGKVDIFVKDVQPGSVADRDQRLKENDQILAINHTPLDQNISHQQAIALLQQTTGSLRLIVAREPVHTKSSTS
# Sequence of DLG4_3, P78352 (P78352 306-403): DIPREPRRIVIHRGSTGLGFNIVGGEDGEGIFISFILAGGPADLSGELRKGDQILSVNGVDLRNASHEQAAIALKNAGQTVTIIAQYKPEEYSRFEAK
# Sequence of FRMPD4, Q14CM0 (Q14CM0 67-160): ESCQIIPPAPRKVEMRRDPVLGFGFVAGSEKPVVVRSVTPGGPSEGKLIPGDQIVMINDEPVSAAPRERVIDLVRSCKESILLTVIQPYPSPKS
# Sequence of MAGI2_5, Q86UL8 (Q86UL8 915-1017): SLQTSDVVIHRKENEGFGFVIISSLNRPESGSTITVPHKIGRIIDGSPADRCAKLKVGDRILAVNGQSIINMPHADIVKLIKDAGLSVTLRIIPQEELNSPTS
# Sequence of LNX1_1, Q8TBB1 (Q8TBB1 261-371): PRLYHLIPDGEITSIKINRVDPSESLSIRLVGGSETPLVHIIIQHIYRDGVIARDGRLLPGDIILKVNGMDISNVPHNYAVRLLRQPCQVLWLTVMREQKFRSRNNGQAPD
# Sequence of Inadl_3, Q8NI35 (Q8NI35 359-469): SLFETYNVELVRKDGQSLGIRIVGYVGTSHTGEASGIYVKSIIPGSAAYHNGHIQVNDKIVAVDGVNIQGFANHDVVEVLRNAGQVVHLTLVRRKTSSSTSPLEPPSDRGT
# Sequence of LNX1_2, Q8TBB1 (Q8TBB1 371-470): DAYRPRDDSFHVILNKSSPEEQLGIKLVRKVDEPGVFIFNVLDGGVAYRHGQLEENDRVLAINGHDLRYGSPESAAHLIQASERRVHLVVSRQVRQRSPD
# Sequence of Inadl_9, Q8NI35 (Q8NI35 1530-1615): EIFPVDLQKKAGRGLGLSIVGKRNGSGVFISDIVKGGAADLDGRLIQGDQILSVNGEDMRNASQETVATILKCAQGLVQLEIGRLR
Binder,"pKd (MPDZ_12, O75970)","pKd (PTPN13_1, Q12923)","pKd (LIMK2, P53671)","pKd (DLG4_2, P78352)","pKd (FRMPD4, Q14CM0)","pKd (LNX2_2, Q8N448)","pKd (PDZRN4_1, Q6ZMN7)","pKd (LNX1_2, Q8TBB1)","pKd (RAPGEF6, Q8TEU7)","pKd (Inadl_1, Q8NI35)","pKd (APBA2_2, Q99767)","pKd (Inadl_3, Q8NI35)","pKd (DLG1_1, Q12959)","pKd (Inadl_9, Q8NI35)","pKd (DLG4_3, P78352)","pKd (SHANK1, Q9Y566)","pKd (HTRA4, P83105)","pKd (AHNAK1, Q09666)","pKd (APBA3_1, O96018)","pKd (MAGI2_6, Q86UL8)",further results
"DTKNYKQTSV [CRIPT, Q9P021]",below the threshold,below the threshold,below the threshold,4.9,below the threshold,3.66,4.12,below the threshold,below the threshold,below the threshold,below the threshold,below the threshold,4.35,below the threshold,5.39,below the threshold,3.95,below the threshold,below the threshold,3.75,"pKd (NHERF3_4, Q5T2W1): 3.56; pKd (MAGI2_5, Q86UL8): 4.26; pKd (DLG2_2, Q15700): 4.71; pKd (PDZD7_3, Q9H5P4): 3.94; pKd (LNX1_1, Q8TBB1): 3.78; pKd (GRIP1_5, Q9Y3R0): below the threshold; pKd (PTPN3, P26045): 5.07"
"KSRVAFFEEL [NF2, P35240;P35240-1]",below the threshold,below the threshold,below the threshold,,4.17,below the threshold,below the threshold,below the threshold,below the threshold,below the threshold,below the threshold,4.28,below the threshold,below the threshold,,below the threshold,4.4,below the threshold,below the threshold,4.05,"pKd (MAGI2_5, Q86UL8): below the threshold; pKd (PDZD7_3, Q9H5P4): 4.12; pKd (PTPN3, P26045): 4.22"
"KRPEMTSSSV [MUC3A, MUC3B, Q02505;Q9H195]",,,,4.15,below the threshold,,below the threshold,below the threshold,,below the threshold,below the threshold,below the threshold,1.76,3.6,1.91,3.92,below the threshold,below the threshold,below the threshold,3.66,"pKd (DLG2_2, Q15700): 3.54; pKd (LNX1_1, Q8TBB1): 1.88; pKd (GRIP1_5, Q9Y3R0): below the threshold"
"SRSVVESDEL [MYPN, Q86TC9]",below the threshold,below the threshold,below the threshold,below the threshold,3.72,below the threshold,below the threshold,below the threshold,below the threshold,below the threshold,below the threshold,below the threshold,below the threshold,below the threshold,below the threshold,below the threshold,below the threshold,below the threshold,below the threshold,below the threshold,"pKd (NHERF3_4, Q5T2W1): below the threshold; pKd (MAGI2_5, Q86UL8): 3.95; pKd (DLG2_2, Q15700): below the threshold; pKd (PDZD7_3, Q9H5P4): 3.75; pKd (LNX1_1, Q8TBB1): below the threshold; pKd (GRIP1_5, Q9Y3R0): below the threshold; pKd (PTPN3, P26045): 3.99"
"IDESKKEWLI [CNTNAP2, Q9UHC6]",below the threshold,below the threshold,below the threshold,below the threshold,below the threshold,4.77,below the threshold,3.66,below the threshold,3.93,below the threshold,5.46,below the threshold,below the threshold,below the threshold,below the threshold,below the threshold,below the threshold,below the threshold,below the threshold,"pKd (NHERF3_4, Q5T2W1): below the threshold; pKd (MAGI2_5, Q86UL8): below the threshold; pKd (DLG2_2, Q15700): below the threshold; pKd (PDZD7_3, Q9H5P4): below the threshold; pKd (LNX1_1, Q8TBB1): below the threshold; pKd (GRIP1_5, Q9Y3R0): below the threshold; pKd (PTPN3, P26045): 4.07"
"PSVGSKKTVL [REELD1, A0A1B0GV85]",below the threshold,below the threshold,below the threshold,below the threshold,3.53,below the threshold,below the threshold,below the threshold,below the threshold,below the threshold,below the threshold,below the threshold,below the threshold,below the threshold,below the threshold,3.93,3.91,below the threshold,below the threshold,below the threshold,"pKd (NHERF3_4, Q5T2W1): 3.87; pKd (MAGI2_5, Q86UL8): below the threshold; pKd (DLG2_2, Q15700): below the threshold; pKd (PDZD7_3, Q9H5P4): 4.67; pKd (LNX1_1, Q8TBB1): below the threshold; pKd (GRIP1_5, Q9Y3R0): below the threshold; pKd (PTPN3, P26045): 3.64"
